Data set [1] concerns the target HIV-1 integrase (full length wild type) (HIV-1).
Data set [2] has the same target. Briefly: cross-linking + other: High-Mass MALDI ToF mass spectrometry; purified IN/LEDGF/INI1-IBD complex (formed by dialysis, affinity chromatography and gel filtration) chemically cross-linked before mass spectrometry; linear mode. On the technique in general: Size exclusion chromatography separates by hydrodynamic size, large species first.
Data set [3] deals with T1, HIV-1 integrase (IN);LEDGF/p75 (HIV-1;human?, UniProt P04585;O75475 1148-1435;1-530, |). Briefly: competition (fluorescence anisotropy); excess over N1; 5 mM Mg2+. The settings on record: protein: recombinant;recombinant; tags: GST tag on the IN/LEDGF complex cleaved by P3C protease; chain copies: 4;2; blunt. In general terms: Polarisation of emitted light reports the rotation of a fluorescent probe.

In data set [4] the target is T2, HIV-1 integrase (IN);LEDGF/p75;INI1-IBD (HIV-1;human?;human?, UniProt P04585;O75475;Q12824 1148-1435;1-530;174-289, ||). The data set is described as above. To be noted: protein: recombinant;recombinant;recombinant; tags: GST tag on the IN/LEDGF complex cleaved by P3C protease; chain copies: 4;2;2; blunt.
Data set [5] has as its target T1, HIV-1 integrase (IN);LEDGF/p75. Briefly: fluorescence anisotropy; 5 mM Mg2+; 2 DNA duplexes per complex assumed. To be noted: protein: recombinant;recombinant; tags: GST tag on the IN/LEDGF complex cleaved by P3C protease; chain copies: 4;2; label: 5'-6FAM on strand 1; blunt.
The target in data set [6] is T2, HIV-1 integrase (IN);LEDGF/p75;INI1-IBD. Described as above. The settings on record: protein: recombinant;recombinant;recombinant; tags: GST tag on the IN/LEDGF complex cleaved by P3C protease; chain copies: 4;2;2; label: 5'-6FAM on strand 1; blunt.

This note sets out measurements from publication PMC3623958, “Structural and Functional Role of INI1 and LEDGF in the HIV-1 Preintegration Complex”.

Consider “Lens Epithelium-Derived Growth Factor LEDGF/p75 (full length wild type) (from UniProt O75475 1-530) (natural protein)”, for which the circular full site integration products counted by cloning in bacteria, IN/LEDGF complex against isolated IN, 0.1 to 12.5 µM in IN monomers in data set [1] lay within 2 to 10 times.

Consider “HIV-1 integrase (full length wild type) (enzyme)”, for which, in data set [2], the stoichiometry N was found to be 2.

B1: non-specific DNA 49 bp, unlabeled competitor (dsDNA)
DNA 1: AGTTAAGTGCTGAATTATGATAGTAATCAATATCTACTCCTAACCTCTT
DNA 2: AAGAGGTTAGGAGTAGATATTGATTACTATCATAATTCAGCACTTAACT
Regarding B1, the binding result in data set [3] and in data set [4] was “no binding” throughout.

B2: U5 vDNA 40 bp, 6FAM (dsDNA)
DNA 1: GACTACGGTTCAAGTCAGCGTGTGGAAAATCTCTAGCAGT
DNA 2: ACTGCTAGAGATTTTCCACACGCTGACTTGAACCGTAGTC
Regarding B2, the Kd in data set [5] was found to be 10.6 ± 0.5 nM; in data set [6], 35 ± 4 nM.

For orientation: stoichiometry N means a count of units in the complex or per binding partner. In general, Kd refers to the free concentration of one partner at which half of the binding sites on the other are occupied at equilibrium, for simple one-to-one binding.
